# Data: publication PMC7643160, “An ambruticin-sensing complex modulates Myxococcus xanthus development and mediates myxobacterial interspecies communication” (Nature Communications, 2020)
# T1: AskC (hybrid histidine kinase, MXAN_6734) (Myxococcus xanthus, UniProt Q1CXM2)
# T1 construct: C-terminally His6-tagged AskC
# T1 sequence (Q1CXM2 1-671): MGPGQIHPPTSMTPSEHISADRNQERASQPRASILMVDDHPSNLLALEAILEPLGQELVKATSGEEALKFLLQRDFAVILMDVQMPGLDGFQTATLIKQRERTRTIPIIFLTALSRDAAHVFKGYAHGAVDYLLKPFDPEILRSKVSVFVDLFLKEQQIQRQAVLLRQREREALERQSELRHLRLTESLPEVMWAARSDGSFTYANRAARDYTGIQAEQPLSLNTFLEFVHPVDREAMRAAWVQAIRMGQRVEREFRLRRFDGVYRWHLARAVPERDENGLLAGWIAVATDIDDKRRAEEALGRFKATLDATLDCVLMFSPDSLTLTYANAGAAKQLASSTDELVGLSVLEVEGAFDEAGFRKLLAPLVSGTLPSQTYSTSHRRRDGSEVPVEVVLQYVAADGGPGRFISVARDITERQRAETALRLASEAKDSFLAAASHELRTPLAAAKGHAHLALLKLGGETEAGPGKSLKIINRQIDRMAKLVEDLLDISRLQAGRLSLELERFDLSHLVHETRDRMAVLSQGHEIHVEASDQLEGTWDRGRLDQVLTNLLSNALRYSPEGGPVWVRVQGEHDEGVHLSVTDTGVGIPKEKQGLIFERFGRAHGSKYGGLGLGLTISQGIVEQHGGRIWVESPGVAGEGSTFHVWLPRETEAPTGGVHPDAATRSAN
# B1: FruA, transcriptional regulator of development (natural protein)
# chain: MATNQAAIRVSILEGPWAAWQGLADGLRGEGVQVSSVTRDVRLFLDSLGTDPPQVAVMDVEGDSEAAVGCSVTEGINLLREARKRRLEVRMLLLSAVSTPEIISQCFDEGASGYLFRAGLGTTAVASAINSLVRGERLFPVQLLRNDFEHPPVTSPTASVLLALTQREREVLAYVAGGADNLKIAAHLQIAERTVKSHVTQLYRKLGAENRTQLALRACHLGVRPPPDL
# B2: MrpC, transcriptional regulator of development (natural protein)
# chain: MHGFNRPLGPIGSNVVAPLQTTSSGMMVTANKLVPGQEAIDFKGYFKVESFPHNSTIYRPGDNTDRVYLLKSGRVRLMRIGKNSTRSVVSILRPGDLFGELFRPEGTPIEEMAIAAGEAEVWSIEGRDFRAQLEARPALAVDVVRAYAERVRALRKRVLGLTFKEVPARLADTLLTLVEAHGERCPHGGETDLRGITQQDLADLVGASRSFVSTLINEMKREGVLGNVGRILCVRDQKALRKIAGKEK
# What was measured:
# [1] = target: AskA (ambruticin sensor kinase A, MXAN_0712), hybrid histidine kinase (Myxococcus xanthus); assay: MST; NT647-labelled C-terminally His6-tagged AskA, AskB or AskC titrated with serial 1:1 dilutions of non-labelled protein; buffer KB1 (500 mM NaCl, 25 mM HEPES, 0.2% Triton X100, pH 7.4); 25 °C; 40% LED power, 40% MST power; triplicates
# Sequence of AskA (ambruticin sensor kinase A, MXAN_0712), hybrid histidine kinase (Myxococcus xanthus) (main, as listed by the source): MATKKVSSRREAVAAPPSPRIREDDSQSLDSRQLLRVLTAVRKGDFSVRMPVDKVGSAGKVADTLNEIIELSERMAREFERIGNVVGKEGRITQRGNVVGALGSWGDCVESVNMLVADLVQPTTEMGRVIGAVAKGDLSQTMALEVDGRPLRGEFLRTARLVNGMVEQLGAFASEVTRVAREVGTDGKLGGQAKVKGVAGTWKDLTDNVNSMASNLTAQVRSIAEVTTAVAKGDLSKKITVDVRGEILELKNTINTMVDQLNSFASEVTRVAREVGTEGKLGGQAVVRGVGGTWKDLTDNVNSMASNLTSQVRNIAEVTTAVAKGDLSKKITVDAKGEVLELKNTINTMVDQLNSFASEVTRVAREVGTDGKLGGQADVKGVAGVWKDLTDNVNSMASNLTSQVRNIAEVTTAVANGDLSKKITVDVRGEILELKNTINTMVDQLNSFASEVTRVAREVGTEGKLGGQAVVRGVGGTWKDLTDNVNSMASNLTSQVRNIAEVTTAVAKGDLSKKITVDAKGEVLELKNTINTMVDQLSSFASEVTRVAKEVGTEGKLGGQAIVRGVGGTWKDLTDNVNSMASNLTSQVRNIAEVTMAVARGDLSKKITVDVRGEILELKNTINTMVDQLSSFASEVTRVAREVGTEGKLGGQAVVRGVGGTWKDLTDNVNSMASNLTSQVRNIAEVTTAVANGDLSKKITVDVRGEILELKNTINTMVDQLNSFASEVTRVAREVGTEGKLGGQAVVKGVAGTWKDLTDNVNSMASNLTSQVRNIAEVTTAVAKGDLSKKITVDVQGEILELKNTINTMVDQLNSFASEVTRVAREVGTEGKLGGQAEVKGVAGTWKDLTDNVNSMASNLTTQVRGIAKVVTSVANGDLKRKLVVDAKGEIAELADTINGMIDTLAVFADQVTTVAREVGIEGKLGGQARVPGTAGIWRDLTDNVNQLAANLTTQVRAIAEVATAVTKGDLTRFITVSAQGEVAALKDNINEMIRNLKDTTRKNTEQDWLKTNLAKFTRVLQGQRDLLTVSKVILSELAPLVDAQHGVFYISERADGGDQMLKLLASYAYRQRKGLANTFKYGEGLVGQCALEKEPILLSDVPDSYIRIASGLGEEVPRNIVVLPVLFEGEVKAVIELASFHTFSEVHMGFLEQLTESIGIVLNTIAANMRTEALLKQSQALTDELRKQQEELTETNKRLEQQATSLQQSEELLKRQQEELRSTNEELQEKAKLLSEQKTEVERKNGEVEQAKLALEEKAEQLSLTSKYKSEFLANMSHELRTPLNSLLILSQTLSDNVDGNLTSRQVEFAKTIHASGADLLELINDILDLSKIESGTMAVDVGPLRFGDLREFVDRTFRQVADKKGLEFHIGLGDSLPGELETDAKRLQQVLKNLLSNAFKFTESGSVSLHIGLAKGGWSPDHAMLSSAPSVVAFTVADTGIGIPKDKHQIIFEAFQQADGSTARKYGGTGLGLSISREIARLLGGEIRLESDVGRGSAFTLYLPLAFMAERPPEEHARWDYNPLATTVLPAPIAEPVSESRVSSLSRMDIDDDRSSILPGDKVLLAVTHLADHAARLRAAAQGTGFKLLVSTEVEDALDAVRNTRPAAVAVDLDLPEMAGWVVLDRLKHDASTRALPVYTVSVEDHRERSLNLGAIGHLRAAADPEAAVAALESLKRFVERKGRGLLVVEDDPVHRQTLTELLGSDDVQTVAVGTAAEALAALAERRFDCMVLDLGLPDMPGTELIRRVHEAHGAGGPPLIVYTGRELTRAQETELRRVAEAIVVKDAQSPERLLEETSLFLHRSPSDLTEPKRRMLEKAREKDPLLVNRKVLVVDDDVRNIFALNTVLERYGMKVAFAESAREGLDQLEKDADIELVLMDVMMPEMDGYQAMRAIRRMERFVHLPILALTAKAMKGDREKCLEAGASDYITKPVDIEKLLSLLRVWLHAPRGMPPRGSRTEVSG
# [2] = target: AskA (ambruticin sensor kinase A, MXAN_0712), hybrid histidine kinase (Myxococcus xanthus); assay: SPR; equilibrium analysis on Biacore X100; ligand amine-coupled to a CM5 chip (which partner is not told); analyte in KB1 running buffer, 0.001 to 1000 µM; 25 °C; 1:1 fit; triplicates
# [3] = target: AskA (ambruticin sensor kinase A, MXAN_0712), hybrid histidine kinase (Myxococcus xanthus); assay: MST + SPR; average of the KD values from MST and from SPR (mean KD of Table 1)
# [4] = tested on: MrpC (Myxococcus xanthus DK1622); assay: EMSA; conditions: EMSA: 25 mM K-acetate, 8 mM MgSO4, 0.1 mM DTT, 15 mM Tris-HCl pH 7.3, 8% glycerol, 250 ng poly-dIdC, 200 fmol DNA, 15 ul, 30 C 30 min. Pull-down (purified): …
# [5] = target: AskB (ambruticin sensor kinase B, MXAN_6735), hybrid histidine kinase (Myxococcus xanthus); assay: MST; NT647-labelled C-terminally His6-tagged AskA, AskB or AskC titrated with serial 1:1 dilutions of non-labelled protein; buffer KB1 (500 mM NaCl, 25 mM HEPES, 0.2% Triton X100, pH 7.4); 25 °C; 40% LED power, 40% MST power; triplicates
# Sequence of AskB (ambruticin sensor kinase B, MXAN_6735), hybrid histidine kinase (Myxococcus xanthus) (main, as listed by the source): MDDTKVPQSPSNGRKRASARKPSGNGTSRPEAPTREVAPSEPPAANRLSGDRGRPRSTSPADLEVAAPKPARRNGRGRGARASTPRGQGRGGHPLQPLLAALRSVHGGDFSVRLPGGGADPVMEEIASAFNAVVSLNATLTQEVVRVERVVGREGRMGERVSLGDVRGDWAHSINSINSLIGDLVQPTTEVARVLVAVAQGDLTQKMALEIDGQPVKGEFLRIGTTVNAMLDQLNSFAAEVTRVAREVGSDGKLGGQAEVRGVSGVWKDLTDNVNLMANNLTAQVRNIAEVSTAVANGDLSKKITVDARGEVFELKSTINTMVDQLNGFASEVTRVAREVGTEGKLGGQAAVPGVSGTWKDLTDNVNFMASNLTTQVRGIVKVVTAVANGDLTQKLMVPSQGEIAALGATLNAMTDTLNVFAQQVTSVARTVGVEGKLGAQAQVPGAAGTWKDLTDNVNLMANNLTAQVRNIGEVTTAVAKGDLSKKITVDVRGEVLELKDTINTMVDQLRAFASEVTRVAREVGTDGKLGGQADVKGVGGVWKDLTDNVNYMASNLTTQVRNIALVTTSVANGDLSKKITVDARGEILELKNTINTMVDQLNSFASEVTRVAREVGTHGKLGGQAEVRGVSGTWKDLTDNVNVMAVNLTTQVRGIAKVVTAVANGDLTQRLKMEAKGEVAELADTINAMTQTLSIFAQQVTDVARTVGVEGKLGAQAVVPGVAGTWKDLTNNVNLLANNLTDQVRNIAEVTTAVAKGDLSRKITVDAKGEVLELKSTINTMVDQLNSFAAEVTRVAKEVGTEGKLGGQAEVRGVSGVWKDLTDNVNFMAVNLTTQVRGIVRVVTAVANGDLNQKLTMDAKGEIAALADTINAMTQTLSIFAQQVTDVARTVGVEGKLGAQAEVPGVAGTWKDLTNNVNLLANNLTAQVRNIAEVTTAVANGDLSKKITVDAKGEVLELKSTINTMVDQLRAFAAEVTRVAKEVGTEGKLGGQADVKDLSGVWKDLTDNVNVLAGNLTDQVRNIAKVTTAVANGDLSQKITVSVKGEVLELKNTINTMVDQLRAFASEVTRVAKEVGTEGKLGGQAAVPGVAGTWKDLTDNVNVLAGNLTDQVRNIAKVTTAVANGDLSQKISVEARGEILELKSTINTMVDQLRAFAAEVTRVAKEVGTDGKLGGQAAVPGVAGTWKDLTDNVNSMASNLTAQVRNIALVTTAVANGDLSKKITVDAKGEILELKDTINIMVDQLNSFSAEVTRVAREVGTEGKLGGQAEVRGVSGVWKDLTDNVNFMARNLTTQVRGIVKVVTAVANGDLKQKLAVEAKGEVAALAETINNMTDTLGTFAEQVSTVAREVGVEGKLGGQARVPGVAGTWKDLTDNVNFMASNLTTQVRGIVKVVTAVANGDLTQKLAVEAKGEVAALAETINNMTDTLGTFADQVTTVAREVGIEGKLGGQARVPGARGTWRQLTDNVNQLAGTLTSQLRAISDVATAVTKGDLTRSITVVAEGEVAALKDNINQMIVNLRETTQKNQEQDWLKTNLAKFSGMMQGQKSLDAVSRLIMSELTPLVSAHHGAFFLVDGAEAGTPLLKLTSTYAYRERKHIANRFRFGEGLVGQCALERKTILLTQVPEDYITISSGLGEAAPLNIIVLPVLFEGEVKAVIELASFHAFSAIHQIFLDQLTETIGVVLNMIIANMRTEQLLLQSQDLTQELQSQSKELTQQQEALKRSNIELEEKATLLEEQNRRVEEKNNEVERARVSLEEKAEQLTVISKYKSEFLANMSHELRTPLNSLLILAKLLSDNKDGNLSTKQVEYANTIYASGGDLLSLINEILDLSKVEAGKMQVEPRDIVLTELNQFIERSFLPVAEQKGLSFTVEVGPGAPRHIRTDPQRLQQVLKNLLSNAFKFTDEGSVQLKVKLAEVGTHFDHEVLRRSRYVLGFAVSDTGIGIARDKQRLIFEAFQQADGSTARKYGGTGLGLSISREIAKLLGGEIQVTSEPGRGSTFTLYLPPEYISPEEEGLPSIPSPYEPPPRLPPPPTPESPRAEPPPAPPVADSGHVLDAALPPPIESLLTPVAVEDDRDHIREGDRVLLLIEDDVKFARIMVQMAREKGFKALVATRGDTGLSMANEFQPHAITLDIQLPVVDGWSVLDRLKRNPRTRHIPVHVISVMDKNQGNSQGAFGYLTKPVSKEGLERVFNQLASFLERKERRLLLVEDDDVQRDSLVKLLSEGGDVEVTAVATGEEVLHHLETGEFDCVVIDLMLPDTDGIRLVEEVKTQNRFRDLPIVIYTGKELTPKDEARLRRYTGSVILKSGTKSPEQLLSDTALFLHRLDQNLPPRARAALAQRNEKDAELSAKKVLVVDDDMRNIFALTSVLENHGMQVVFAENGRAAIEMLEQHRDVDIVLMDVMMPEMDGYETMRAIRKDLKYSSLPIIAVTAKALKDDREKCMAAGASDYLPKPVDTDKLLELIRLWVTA
# [6] = target: AskB (ambruticin sensor kinase B, MXAN_6735), hybrid histidine kinase (Myxococcus xanthus); assay: SPR; equilibrium analysis on Biacore X100; ligand amine-coupled to a CM5 chip (which partner is not told); analyte in KB1 running buffer, 0.001 to 1000 µM; 25 °C; 1:1 fit; triplicates
# [7] = target: AskB (ambruticin sensor kinase B, MXAN_6735), hybrid histidine kinase (Myxococcus xanthus); assay: MST + SPR; average of the KD values from MST and from SPR (mean KD of Table 1)
# [8] = target: T1, AskC (hybrid histidine kinase, MXAN_6734); assay: MST and SPR with purified protein (KD […] by MST, […] by SPR; mean given); type: binding
# [9] = target: AskC (MXAN_6734), hybrid histidine kinase, C-terminally His6-tagged (Myxococcus xanthus); assay: MST; NT647-labelled C-terminally His6-tagged AskA, AskB or AskC titrated with serial 1:1 dilutions of non-labelled protein; buffer KB1 (500 mM NaCl, 25 mM HEPES, 0.2% Triton X100, pH 7.4); 25 °C; 40% LED power, 40% MST power; triplicates
# [10] = target: AskC (MXAN_6734), hybrid histidine kinase, C-terminally His6-tagged (Myxococcus xanthus); assay: SPR; equilibrium analysis on Biacore X100; ligand amine-coupled to a CM5 chip (which partner is not told); analyte in KB1 running buffer, 0.001 to 1000 µM; 25 °C; 1:1 fit; triplicates
# [11] = target: AskC (MXAN_6734), hybrid histidine kinase, C-terminally His6-tagged (Myxococcus xanthus); assay: MST + SPR; average of the KD values from MST and from SPR (mean KD of Table 1)
Molecule,Kd [1],Kd [2],mean KD [3],Kd [4],Kd [5],Kd [6],mean KD [7],Kd [8],Kd [9],Kd [10],mean KD [11]
"AskB (ambruticin sensor kinase B, MXAN_6735), hybrid histidine kinase (enzyme)",2.3 µM,3 µM,2.8 µM,,,,,,,,
HEX-PmrpC,,,,< 0.005 µM,,,,,,,
"AskC (MXAN_6734), hybrid histidine kinase, C-terminally His6-tagged (enzyme)",4.1 µM,1.4 µM,2.8 µM,,0.9 µM,0.4 µM,0.7 µM,,,,
"CCC1OC(/C(C)=C/C(C)/C=C/C2C(C)C2/C=C/C2OC(CC(=O)O)CC(N(C)C)C2O)CC=C1C (centres unmarked) [ambVS3, ambruticin VS-3]",,,,,,,,300 ± 200 µM,,,
B1,1.4 µM,0.5 µM,1 µM,,2.1 µM,0.2 µM,1.2 µM,,1.3 µM,1.5 µM,1.4 µM
B2,0.5 µM,1 µM,0.8 µM,,2.1 µM,0.3 µM,1.2 µM,,1.4 µM,1.6 µM,1.5 µM
